Kd data for 3 molecules are collected here from US20190330277A1 (PIRBRIGHT INSTITUTE, published 2019).

Bounds are passed on as bounds.

Experiment in all cases: biolayer interferometry (Octet), variant on Ni-NTA tip, Fab in solution
On the technique in general: Biolayer interferometry detects binding as a change in optical thickness at a sensor tip.

Experiment [1] addresses bRSV RB94 postF (bovine respiratory syncytial virus, …, UniProt P23728 26-109; P23728 147-513).
In experiment [2] the target is bRSV 391-2 postF (bovine respiratory syncytial virus, …, UniProt P22167 26-109; P22167 147-513).
Experiment [3] concerns the target bRSV ATue51908 postF (bovine respiratory syncytial virus, …, UniProt P22167 26-109; P22167 147-513).
Experiment [4] deals with bRSV 391-2 sc9 DS-Cav1 Q98C-Q361C (bovine respiratory syncytial virus, …).
In experiment [5] the target is bRSV 391-2 DSCav1 (bovine respiratory syncytial virus, …, UniProt P22167 26-109).
The target of experiment [6] is bRSV ATue51908 DSCav1 (bovine respiratory syncytial virus, …, UniProt P22167 26-109).
The target in experiment [7] is bRSV ATue51908 sc9-10 DS-Cav1 A149C-Y458C (bovine respiratory syncytial virus, …).
Experiment [8] addresses bRSV 391-2 sc9-10 DS-Cav1 Q98C-Q361C (bovine respiratory syncytial virus, …).

B1: AM14 Fab (Fab, V domains shown)
VH: EVQLVESGGGVVQPGRSLRLSCAASGFSFSHYAMHWVRQAPGKGLEWVAVISYDGENTYYADSVKGRFSISRDNSKNTVSLQMNSLRPEDTALYYCARDRIVDDYYYYGMDVWGQGATVTVSS
VL: DIQMTQSPSSLSASVGDRVTITCQASQDIKKYLNWYHQKPGKVPELLMHDASNLETGVPSRFSGRGSGTDFTLTISSLQPEDIGTYYCQQYDNLPPLTFGGGTKVEIKR
notes: also called mAb AM14
In general, Kd refers to the free concentration of one partner at which half of the binding sites on the other are occupied at equilibrium, for simple one-to-one binding. Low readings indicate tighter binding, high ones weaker binding. As to B1, the Kd is over 1000 nM in experiment [1]; over 1000 nM in experiment [2]; over 1000 nM in experiment [3]; 8.6 nM in experiment [4]; 1.8 nM in experiment [5]; 4.8 nM in experiment [6]. The Kd in experiment [7] and in experiment [8] was 12.8 nM throughout.

B2: MPE8 Fab (Fab, V domains shown)
VH: EVQLVESGGGLVKPGGSLRLSCAASGFTFSSYSMNWVRQAPGKGLEWVSSISASSSYSDYADSAKGRFTISRDNAKTSLFLQMNSLRAEDTAIYFCARARATGYSSITPYFDIWGQGTLVTVSS
VL: QSVVTQTPSVSGAPGQRVTISCTGSSSNIGAGYDVHWYQQLPGTAPKLLIYDNNNRPSGVPDRFSASKSGTSASLAITGLQAEDEADYYCQSYDRNLSGVFGTGTKVTVL
notes: also called mAb MPE8
B2: the Kd in experiment [1] and in experiment [2] was over 1000 nM in each case.

B3: D25 Fab (Fab, V domains shown)
VH: QVQLVQSGAEVKKPGSSVMVSCQASGGPLRNYIINWLRQAPGQGPEWMGGIIPVLGTVHYAPKFQGRVTITADESTDTAYIHLISLRSEDTAMYYCATETALVVSTTYLPHYFDNWGQGTLVTVSS
VL: DIQMTQSPSSLSAAVGDRVTITCQASQDIVNYLNWYQQKPGKAPKLLIYVASNLETGVPSRFSGSGSGTDFSLTISSLQPEDVATYYCQQYDNLPLTFGGGTKVEIK
notes: also called mAb D25
As to B3, the equilibrium dissociation constant (Kd) worked out at 10.8 nM in experiment [6] and 420 nM in experiment [7].
